# Data as given in the Immune Epitope Database (IEDB).
# Tests used:
# [1] = molecular target: HLA-A*26:02; assay: IEDB peptide-MHC binding, purified MHC/competitive/fluorescence; filed as Kd, often an IC50 or EC50 that approximates it; ≥ and ≤ were set here for values at or beyond the usual limits of such assays; conditions: source organism: Orthomarburgvirus marburgense
# [2] = molecular target: HLA-A*02:06; assay: as above; conditions: source organism: Orthomarburgvirus marburgense
# [3] = molecular target: HLA-B*58:01; assay: IEDB peptide-MHC binding, purified MHC/direct/fluorescence; filed as Kd, often an IC50 or EC50 that approximates it; ≥ and ≤ were set here for values at or beyond the usual limits of such assays; conditions: source organism: Marburg virus - Musoke, Kenya, 1980
# [4] = molecular target: HLA-A*02:01; assay: as above; conditions: source organism: Marburg virus - Musoke, Kenya, 1980
# [5] = molecular target: HLA-A*68:02; assay: as above; conditions: source organism: Marburg virus - Musoke, Kenya, 1980
# [6] = molecular target: HLA-B*27:05; assay: as above; conditions: source organism: Marburg virus - Musoke, Kenya, 1980
# [7] = molecular target: HLA-B*15:09; assay: as above; conditions: source organism: Orthomarburgvirus marburgense
# [8] = molecular target: HLA-A*01:01; assay: as above; conditions: source organism: Marburg virus - Musoke, Kenya, 1980
# [9] = molecular target: HLA-B*27:02; assay: as above; conditions: source organism: Orthomarburgvirus marburgense
# [10] = molecular target: HLA-B*57:01; assay: as above; conditions: source organism: Marburg virus - Musoke, Kenya, 1980
# [11] = molecular target: HLA-B*48:01; assay: as above; conditions: source organism: Marburg virus - Musoke, Kenya, 1980
# [12] = molecular target: HLA-B*07:02; assay: as above; conditions: source organism: Marburg virus - Musoke, Kenya, 1980
# [13] = molecular target: HLA-B*08:02; assay: as above; conditions: source organism: Orthomarburgvirus marburgense
# [14] = molecular target: HLA-A*31:01; assay: as above; conditions: source organism: Marburg virus - Musoke, Kenya, 1980
# [15] = molecular target: HLA-B*15:17; assay: as above; conditions: source organism: Marburg virus - Musoke, Kenya, 1980
# [16] = molecular target: HLA-B*15:01; assay: as above; conditions: source organism: Marburg virus - Musoke, Kenya, 1980
# [17] = molecular target: HLA-B*73:01; assay: as above; conditions: source organism: Marburg virus - Musoke, Kenya, 1980
# [18] = molecular target: HLA-B*18:01; assay: as above; conditions: source organism: Marburg virus - Musoke, Kenya, 1980
# [19] = molecular target: HLA-A*11:01; assay: as above; conditions: source organism: Marburg virus - Musoke, Kenya, 1980
# [20] = molecular target: HLA-A*32:07; assay: IEDB peptide-MHC binding, purified MHC/competitive/fluorescence; filed as Kd, often an IC50 or EC50 that approximates it; ≥ and ≤ were set here for values at or beyond the usual limits of such assays; conditions: source organism: Yersinia pestis Nepal516
# [21] = molecular target: HLA-A*68:23; assay: as above; conditions: source organism: Yersinia pestis Nepal516
# [22] = molecular target: HLA-B*83:01; assay: as above; conditions: source organism: Yersinia pestis Nepal516
# [23] = molecular target: HLA-B*40:13; assay: as above; conditions: source organism: Yersinia pestis Nepal516
# [24] = molecular target: HLA-A*32:15; assay: as above; conditions: source organism: Yersinia pestis Nepal516
# [25] = molecular target: HLA-B*51:01; assay: as above; conditions: source organism: Yersinia pestis Nepal516
# [26] = molecular target: HLA-B*15:42; assay: as above; conditions: source organism: Yersinia pestis Nepal516
# [27] = molecular target: HLA-B*15:01; assay: as above; conditions: source organism: Yersinia pestis Nepal516
# [28] = molecular target: HLA-B*35:01; assay: as above; conditions: source organism: Yersinia pestis Nepal516
# [29] = molecular target: HLA-B*45:06; assay: as above; conditions: source organism: Yersinia pestis Nepal516
sequence,measurement,setting,value
KRLLLKLDF,Kd,[1],≥ 20 µM
same,Kd,[2],3.93 µM
same,Kd,[3],≥ 20 µM
same,Kd,[4],≥ 20 µM
same,Kd,[5],≥ 20 µM
same,Kd,[6],0.382 µM
same,Kd,[7],≥ 20 µM
same,Kd,[8],≥ 20 µM
same,Kd,[9],12.2 µM
same,Kd,[10],≥ 20 µM
same,Kd,[11],≥ 20 µM
same,Kd,[12],≥ 20 µM
same,Kd,[13],≥ 20 µM
same,Kd,[14],≥ 20 µM
same,Kd,[15],≥ 20 µM
same,Kd,[16],≥ 20 µM
same,Kd,[17],≥ 20 µM
same,Kd,[18],≥ 20 µM
same,Kd,[19],≥ 20 µM
MPFAWQFGF,Kd,[20],0.0056 µM
same,Kd,[21],0.0027 µM
same,Kd,[22],0.0297 µM
same,Kd,[23],0.232 µM
same,Kd,[24],0.0032 µM
same,Kd,[25],0.669 µM
same,Kd,[26],≥ 5 µM
same,Kd,[27],≥ 20 µM
same,Kd,[28],≤ 0.0001 µM
same,Kd,[29],≥ 5 µM
